From a protein production outcome set (Wang et al. 2014) come the findings set out here.

A short description of this data set: label from the status in PepcDB records.
Turning to “MLRGDILDSKRTSIMTRFSSLLLALSVLLLPLRPAQGQPAERTSSLTVEQIMQAPETWIGDWPTNARWHESGQALYFNWNPGGDFPSDSLYKVSRSGGAPQKVSPAERRSNPPTFDGWHHGEHVYTDDFSRKVYAADGDLYLYNRETDTQTRLTDTPAREGNPRFGLEEDRVLFERDDNLFSVHLSTGQIRQLTNVQSGREPQEGAPSPRERFLEEQQLELFETLRERNEEEEQADEARERDREADDPPPPFYTGDAEVSALRMDPTERFVTIAQQSQPDAADPTQVIDYVTESGQADVRRARPKVGIPPGDFALHVQDLKRDTTIAVNLHQLPGAYDVPAYRQEQGAELDSSEAKRALYSYGPYWSADGDHGVLVVRADNNKDRWIARLDPETGDLTVLDRQHDTAWIGGPGISAYGGPGNVGWMPDGEHFYFQSEATGYSHLYTVDVETGETTQLTSGDFEVLDARLSQDGSTWTLTTNRHSPHQQHVERMPADGGDITRLTQMTGTHDAVLSPDGTRLATLYSTTNQPADLYLKDATADADPVRITESPTDEWAAYDWRMPELTRFEASDGVEVPAHVFRPDNPNGAAVFFVHGAGYLQNVLKDFPPYFREYMFHNMLTDLGYTVVDVDYRGSAGYGRDWRTAVYRHMGGRDLQDYVDAAKWVGDTYGIPAERRFIYGGSYGGFMTLMALFTEPEHFGGGAALRSVTDWAHYNDVYTSNILNTPQTDSLAYARSSPIYHAEGLEDPLLMPHGLVDTNVQPQDIFRLTQRLIELGKENWELAIYPVEGHGFEEPSSWTDEYRRIFELIQESVGPERPQN”, the protein production result is listed as “failed”.
Under “MLRGLRIIAENKIGVLRDLTTIIAEEGGNITFAQTFLIKHGEHEGKALIYFEIEGGDFEKILERVKTFDYIIEIEEEESFERVFGKRVIILGGGALVSQVAIGAISEADRHNLRGERISVDTMPVVGEEEIAEAVKAVSRLHRAEVLVLAGGIMGGKITEEVKKLRKSGIRVISLSMFGSVPDVADVVISDPVMAGTLAVMHISEKAKFDLDRVKGRRI” stands “not failed”; under “MLRIFSAKNEVDSKYIFMLAFMLALFSSGVPPEIVILHLSREDSFEPYTKVFKKIRNLVSGYRYKFSSAITYSIKNLNIRFLKEFLIRLSQAVTFGDDMIEFLSREIDFTLSEYNAYSARLIESMNNFLTIYATLNSSLTFLVADITILSLIYSGGTTLIIQLTILSLALLGNLTLVMYLLYRPENYIRYNVIDKFVLTFTISLSIIFSVIYTSYIVLMGTGIVLLGIGLRYRLYENKINRIERHFLLFIRYFSRNYAIVSNLKESLMAVLRGDLGDVRPLIRRSLNRLNFGIDKEKIFRLIGDESGSILVSMLSKVLYETISMGGNAMIIGEILSKIGDSVLNIRSRKEQNGRAFETSIYALQTASAGVSAALISIVGMLNNIFSTQNVSTVFSFSEVNIDIISRIFLIILLILSFANGIAITLAYGKSLYVSLYFIGILIILSSISYHIVLILTGNIFKELASPSGLLQTT”, “failed”.
Consider “MLRLVKKSVIGLVDWFLYKALKTSQKQFLSSLLTEKQKQAIKRVIKPGKKQTQLRKIERLKYRLYNLGFTNRALEDLQLICRESGEPYLKRLAAWELALWHANQYTTEDAKACLRYLDIATTGVKDRDDLRAVAIVKAECYDLLGEREQGKELVQQMIETQPHPDLYLAAANLETTVAQRMKWINKVFAHYGTEPLELTEQADEKSPYDALGVNGIDESSENDEQPKVTVIIPAFNAESVIQTSIESMQKQTWTNLEIFVVDDCSTDETASIVHQYAEQDHRVHYLKTETNSGAYVARNIALQHATGDFVTINDADDWSHSRKIEIQVRHLLKHPNIIGNFSQQVRATNDLKFYRRGKPGLYIFANMSSFMFRRKPAMDKLGYWDCVRFAGDSEFVKRIKLAFGEKAVVELPTAPLSFQRQSGESLTSHSAFGFPGYFMGARREYAEAHDHFHRTSQEGLRYSFPQKERPFPVPEPMLPNRQPKSAGRRHFDVILASEFRLLGGTNMSNVEEIKAQREMGLRTGLIQLSRYDLNSVEAINPNVRELIDGDQVQMIVYGEQVSCDVLIVRHPPILQEWQRYVPNVEAKSVHVIVNQPPQRDYGDNGSVLYELPRCIDHLQAYFGKKGIWYPIGPNVREALYEHHHKDLQAIPFSDQDWVNIINVKEWKRVTRREKDGKIKIGRHSRDQYVKWPKDRATMLQIYPDKEPFEVHILGGAKSPTKVLGSLPANWHVREFGEVHPREFLAELDVFVYFTHPDWVEAFGRVVFEAMAAGVPVIVPHEYEKLFGEAAIYAEITEVQEKVMKLMADDKYYQSQVEKALIYVENQFGYSQHAARLETFLHEDERAEV”, for which the protein production result is “failed”.
Regarding “MLRVIVESASNIPKTKFGKPDPIVSVIFKDEKKKTKKVDNELNPVWNEILEFDLRGIPLDFSSSLGIIVKDFETIGQNKLIGTATVALKDLTGDQSRSLPYKLISLLNEKGQDTGATIDLVIGYDPP”, the protein production entry is “not failed”.
Under “MLRYLALSEAGIAKLPRPQSRCYHSEKGVWGYKPIAQREFQVAEDVRASRNSQANVYRFVEAFRQHGHKLAAVNPISIRTSQQELQELSPAFYGLQTQEPVRTDGLLSGPQVAHNVAQLEQLLKDIYCGRSTSAEFSYVEDIEEREWLARNFETLDQQQLGKSERCEIAELLIKSQAWDNFMALKFPTVKRYGGEGAESMLAFFWQLLRDSVQANIEHVVLAMPHRGRTPLQAALLNMRPAKVFRKLSGASEFSEDIEAMSDVISHFHVSEQLKILGKKLSFSMVRNPSHLEAANPVAMGKTRSKQQARGEGAFGDGSQPFGEHVLNVILHGDAAFAGQGINQECLNMAYVPHFEVGGSLHLIVNNQVGFTTPGDRGRSTAYTSDLAKSIQAPVFHVNGDDPEALARVTSLAFRYQREFRKDIFIDLNCFRRWGHNELDDPTFTNPLVYKIVHQRESVPDLYAQQLAKEQVLSESKAKEMRDEYMKYLGEELALAPAYQPPPSYFEKQWTNFQLAPSKELTYWDTGLDYSLLHYIGQQSVTFPEDFNIHPHLLKTHVNARLKKLENGVKIDWSTAEALAIGSLMYQGHNVRISGEDVGRGTFSHRHAMLVDQQTNEMFIPLNSMEGGNGGKLELAHSILSEEAVLGFEYGMAIDNPNNLIIWEAQFGDFANGAQIIIDTFIVSGETKWMESNALVMLLPHGYDGAASEHSSCRIERFLQLCDSKETSADGDSVNVHIVNPTTPAQYYHVLRRQLARNFRKPLVVVAPKTLLRLPAATSTHEDFQPGTLFHNVLGDTIAKPEQVRKVILCSGKHYYTLAEEREKRQAYDTAILRLESLCPFPIQELQAQLAQYGNVQSFVWSQEEHRNMGAWTFVRPRFENLIGQQLHYCGRCEAPTPATGIGKVHKREVDEIVAAPFEL” stands “failed”.
On to “MLSALIWGPIFGAILIAIIPNPDHDCYSRKIALGIMVAMAGLSVLLAGQFNISDPQMQFVEYYPWLPSLGLNYHLGVDGLSLPLLLLNSALVVIAIFSTNTEIERPRFYYALLLLLSGGVAGAFLAQDLLLFFLFFELEIIPLYFLIAIWGGQRRGYAAMKFLLYTALSGFLVLVSFLGWFWLTKAPNFDYNPSLADALPVKTQMLLLLPLLLGLGIKIPIFPFHTWLPDAHVEASTPVSVLLAGVLLKLGTYGLLRFGLGLYLEAWVEFAPYLATLAAISALYGASCAIAQKDMKKVVAYSSIAHMGYILLAAAAATRLSVTAASAQMVSHGIISALLFLLVGVVYKKTGSRDVDKLQGLLTPERGLPITGSLMILGVMASAGIPGMVGFIAEFLVFRGSFPIFPTQTLLCLIGSGLTAVYFLLMINRVFFGRLTMELSHLPKVRWQEQIPAIALAVVIIALGIQPHWLTQWSEPQTAVLLTGHPDLVSVPAPPRIEIEVKELGEV”, for which the protein production entry is “failed”.
In the case of “MLSATSLKIIFAVSIFIVILIAGWYPFKKRLKDDKHIDFPIGETLATGVFLGAALLHMLPESNTLFKEMGYNYPFAFIITGVVFLIFLWFEHLGKELYHHHDAEHPAFAILAWAMLSVHSLMLGAALGFTQYNSMIIMLFLAIITHKWAESLAIAIQLNKSSMSTRKSMVFFFFFSLMTPLGIYFGWYFGHGVETNSLFDPILIAASAGTFLYLGTLHGLERCVMVERCCNLSDFSFVIIGFLLMASVAIYV” it was “failed”; in that of “MLSGKKTILVFSMLFATFSSHADNFPKLNQALPSGIDARAIAPVFDFDTDGCLPSAGVSRSGVQNGGLKPSGNITGGCRWSNFLDSSNTLHRYACVNSAGSRYCGSFYALYFLKDQILNGVNSGHRHDWEHVAIWTKNGVVTHGSYSAHGKLTTKEASSIDKQDGHLKFSYHKDGPLTHAFRFSKTNEQAENPYGKFVTPDLISWYLMFGDGINNQELRNLLNAFDYGSASIPLKDGNFLTNLNNGRPAGYPEFTDASITVSK”, “failed”.
“MLSHMDGGTAGARVREVGWLAATLTALLLALLLEHYVIHEQMILPWIAVSPEVPPWMLGAQVVPEIIVCFLFGWRLRGLGWIVIYGAAAAALRQSFYALLTRIGASGHPETLFGPPSEFARTAPLVAVMYFMAFGLASMGAREPGPLPGARSRP”: the protein production result is “failed”.
